Test results as given in the domain aggregation screens of Martell et al. (2025).

Test: soluble fraction after stress (log2 fold change); higher = more stays soluble; pooled small domains, quantitative proteomics
Settings: stress: 50 degC
How it was run: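 Pooled custom libraries of small protein domains were measured in a high-throughput format, with quantitative proteomics as the read-out. Each library was stressed at 50°C. Aggregation propensity is given as the base-two logarithm of the fold change in how much of each protein stays soluble after the stress. Higher values mean a larger share of the protein remains in solution.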

For “HMRMLLKELLIQYEVKNDKSHVEVAKEVGVSLSTYYRWLNGESLHLKKRTIDRLSEVLHYDINQVVEES”, which “soluble fraction (log2)” value is on record?
The value was -2.35.

Which “soluble fraction (log2)” value does the source give for “HMIVDYPSFVGKTKQELEKWAKENNIIIRYRQLSVTASDKVKAQLPATTTYKRIMKGSSIEVELEL” here?
The value was -0.776.

Which “soluble fraction (log2)” value does the source give for “HMEPQSRTAYRLIEAMIVTHELPPGSRISEASLSAKLGIGRTPIREALQRLSFEGTVKIVPRSGAFVSEI” here?
Its value is -2.76.

For “HMVAFYATPKERGIYDDAETYREGDIVSIADGSRWIYVNPTATAGNDPADGSVYWERMSGAATGP”, which “soluble fraction (log2)” value is on record?
The value was 0.0147.

For “HMDGASVQRITELTATLNRYRHEYYNLAKPSVSDAVYDRLFDELAALEQKTGIVLSNSPTQTV”, which “soluble fraction (log2)” value is on record?
Its value is -0.247.

Which “soluble fraction (log2)” value does the source give for “HMEGTVQQDKFDAYKAKFEDAISNDLNTSMAITIIYDLLKDDMNDKTKLALINDFDKVLSLNLTTA” here?
Its value is -0.255.

For “HMDVLNPGDKAVTTASWLNFRTGPGMQNKVASVLARNTTVNIIEKSNEWYKVSLANGSTGYVHGMYLSKIT”, which “soluble fraction (log2)” value is on record?
Its value is -0.0937.

With “HMQQVIQSGQKVQLMATDGSFQVSAEGVALKNGSVGEVIGVRMPSGRVISGVVSASGAVEVR” as the sequence, how does the “soluble fraction (log2)” value read?
Its value is 0.146.

Which “soluble fraction (log2)” value does the source give for “HMGLSARIAQRIHGLRTAQRMSLEALAARSGVSRSMISLIERNEASPTAVVLEKIATGLNVVLAALFDTP” here?
Its value is -1.29.

For “HMNEDTEDIKNINSLVNKLTENNFDIIRDSIVKLINKEHLIPYIIETIIEKSILHHRYVHLYVSILKE”, which “soluble fraction (log2)” value is on record?
The value was 0.0794.

With “HMDPSKMKIDELEIATRTATALADGGIKSVAGLIRKSASALKELDGVGDKAIAEITEALEKLGLELKG” as the sequence, how does the “soluble fraction (log2)” value read?
The value was 0.0501.

With “HMNKQEFLNTLRIIFKKANVLDVESIIDVYEEHFAVGYEKGLNDEQIIKSLGTPKEIYTSYVEAGI” as the sequence, how does the “soluble fraction (log2)” value read?
Its value is -0.615.

With “HMAQLVVTVDKLNKRTAIPVTLSDKSSNDSVVEKGFRFEGFPFVNTATNGKKWYKDREGFFYWAGGLMEEA” as the sequence, how does the “soluble fraction (log2)” value read?
The value was 0.0125.

Which “soluble fraction (log2)” value does the source give for “HMSNEWIEISAKTVDDAINEGLIRLGTTTDKMDVEVLEKESAGFLGFIGKHDAKIRVRFKEV” here?
The value was 0.105.

With “HMNTPALRQRTQDVPALLIHFAKYFATKGQTPISFAPDFLEALKDYPWPGNVRELRNLVESMVV” as the sequence, how does the “soluble fraction (log2)” value read?
Its value is -0.0746.

With “HMPSYYKELQNYSPENPVVKKRKVHPDVVNAIKYLAEITDGNPMLIKAYAQMILAHVFTTMPLIDKSV” as the sequence, how does the “soluble fraction (log2)” value read?
The value was -0.128.

With “HMINEEELLKIENIKRKYPDSKAALMPVLYFFQEKYGFISDDSIKEISQLLNISEVDIKGVVSFYEMFHEK” as the sequence, how does the “soluble fraction (log2)” value read?
The value was -0.59.

For “HMVSGLEILKIQVQDHPSDWRWALLLARTHYENGNREAAVRTLRPLQRLHPDRLEVMTLWALLA”, which “soluble fraction (log2)” value is on record?
Its value is -0.00253.

For “HMTNIELYQRLLNLGFTPAQAKILLVQYDETRLTDNLNYVDFKKQQGNIENLPAYTTTIIKKDVRL”, which “soluble fraction (log2)” value is on record?
Its value is -0.389.

For “HMEKKEWVIYITGAVKKPGVYRIPEGARVYQALEAAGGFTPEADRDAVNLAAMLQDGAHIKFPAVGEEV”, which “soluble fraction (log2)” value is on record?
The value was 0.117.

For “HMDWFDELKVSTDDSGRVTAPEESEFMFQTSNEKIFAGGDMVRGSDLVVTAIWEGRQAAEGIMDYLD”, which “soluble fraction (log2)” value is on record?
The value was -0.16.

Which “soluble fraction (log2)” value does the source give for “HMSKPIREVAYETLKNAIVTGEIPAGSRIVETEYAERMHISRTPLREALRKLERDGLVEYVVRRGVVVRAF” here?
The value was -1.54.

With “HMVKVEVKPNVLQWVIKRMDNFDRLKDQFPNIDKWINQESQPTLKQLEKLAKMTAVPLGYFFLPNPPEEK” as the sequence, how does the “soluble fraction (log2)” value read?
The value was -0.183.

Which “soluble fraction (log2)” value does the source give for “HMLKHSKQRDAIEQFLATRYDHPTAETVYMNLREEYPKLSLATVYRNLSLLAELGNIQKIPTGNGPDRFDG” here?
The value was -0.555.

With “HMNTEKRVFAGVENTRLDHFLVEQFPEFSRTFIQQMIKSANVIVNGNIEKASYKLREGDTIMTRPM” as the sequence, how does the “soluble fraction (log2)” value read?
Its value is -0.253.

For “HMGRSARVQQAVHQAVRALLEENDGERSALSVPLVAERAGVNSSTIYRRWGDLPRLLAAVASN”, which “soluble fraction (log2)” value is on record?
The value was -0.481.

With “HMSRLLRTDAHLQYAAERGLPVTASAYTPVFAGAKQYTGRIESFDAQTIRFADGPAVERKAVARLEAE” as the sequence, how does the “soluble fraction (log2)” value read?
Its value is 0.159.

With “HMSNLGLQIVRTLTDAGKGVVFITHKLKEALTIADRINVLRRGKVVGDADPKTASESQIAEMMVGRPVQL” as the sequence, how does the “soluble fraction (log2)” value read?
The value was -0.144.

Which “soluble fraction (log2)” value does the source give for “HMPRSREVHVEPGMVLEDVTTGFVGAVIRTEKSAGIYVIELEDRRGRRRSFPLGGGFWLDGRPIIALPPLP” here?
Its value is -1.19.

For “HMTVKKLTINEDNSGRRIDNYLLSIFNSLPRSKIYNIIRKGEVRVNSSRIKPNYRLEQGDLVRIPPNLEFT”, which “soluble fraction (log2)” value is on record?
Its value is 0.0953.

For “HMLSGGEVKRIEIATILARKSGLMIFDEPEAGIDLWSFARLVETFEDIRSNTSGSLVIISHQ”, which “soluble fraction (log2)” value is on record?
Its value is 0.00488.

With “HMDENILKTRIEDLDLSVRTIKALTGASIRTVSGLARKKESDLLEISGLGDKGIQEIKRALGSLGITL” as the sequence, how does the “soluble fraction (log2)” value read?
The value was 0.0868.

For “HMEMKHKNSQIFQAIKLKHMGFTPTQISEELRVSRTTINHWLTKAQLKDVKWEDIRENSADELVKLLFG”, which “soluble fraction (log2)” value is on record?
Its value is -0.229.

Which “soluble fraction (log2)” value does the source give for “HMDIVENSMPNVVGLELNRAKELMTQLGFTNVRYEPTESSRPENEVVYQSVDKDETLDVSSEIIIQYSSGV” here?
Its value is -0.0131.

With “HMDFTHFTLKQDGKFAGSSNLLHQAVIAAARLAAETGKPVTVMAHVRGGGTRKAVFNPDGTNDKIWN” as the sequence, how does the “soluble fraction (log2)” value read?
Its value is -0.61.

Which “soluble fraction (log2)” value does the source give for “HMDEMPVEFVKISIKAGHPWENRKIKDLASLPDLLLVLILRGEERIIPNGNTVVLAGDKIVLSALSPE” here?
Its value is -0.936.

With “HMTVEMYIGKTANVLETVTENNGRIAIFGEEWQAKSLNGETIEKGAQAKIVKNDSIIMYVVPI” as the sequence, how does the “soluble fraction (log2)” value read?
Its value is 0.0967.

For “HMAEPYDERKVMEQMIPKGKNTIVAHLGHLKDHGETGYLQEALSYLRERESELGFDLKEVRALVHN”, which “soluble fraction (log2)” value is on record?
The value was 0.251.

Which “soluble fraction (log2)” value does the source give for “HMLAEEAFNKQAATAGYVYRDGSYHPAASVAQYDAMPRNYRTNTMAQELSRSQVESQLQQSQ” here?
Its value is 0.436.

Which “soluble fraction (log2)” value does the source give for “HMTGGMVTYIIEKGEGFFSLERKFGLSENELIKLNPSLKSGLKSEMQINIPKENYDRYVASS” here?
Its value is -0.0276.

Which “soluble fraction (log2)” value does the source give for “HMPYLVNGFILEVQSDDNNPVGTLKRRYAVAKNKQGVILLEGEKSFSSNDQILINELKFYIQSNDLKA” here?
The value was -2.43.

With “HMSVNAPMPGKIVNVLVSEGQKVNSGDVLLILEAMKMQNEIAATQAGTVKAINVAAGQSVKVGDALVN” as the sequence, how does the “soluble fraction (log2)” value read?
Its value is 0.108.

With “HMGGEEKALLFGDVDIREAGEITQRLEQAEIPYELRGDGSSIFVPRSRVMEARMMISADGLL” as the sequence, how does the “soluble fraction (log2)” value read?
The value was -0.0992.

For “HMIDRPLTLVEDYERFAGELAKITLRFMLDGRKRFNGRLAGFDEDGKIVLETSFGRFAFSFDEIDSARI”, which “soluble fraction (log2)” value is on record?
The value was -2.68.

Which “soluble fraction (log2)” value does the source give for “HMDRLTISTLGNGLFRVNGAEAEATVYNLSGNVVKVVPADEVIDLSSLAKGVYIIHVDGEAFKVI” here?
Its value is -0.86.

With “HMQVTDTGTIEGEIDKVLAANPDRVTEYHDGKEKILGWFVGQVMQTTKGKANPQMVNQLFLEKLK” as the sequence, how does the “soluble fraction (log2)” value read?
Its value is 0.142.

With “HMTGKVSHGERKSVLVSLAGSMRARGMSIDAVRAGLYADNEKRFDPPLDERDIEDVLNSAKKWGDP” as the sequence, how does the “soluble fraction (log2)” value read?
The value was -0.322.

With “HMNRKILVLLAGKEQITDNVSVMQSIHRYAFINTATINKAQHEILIEKEEIRQEALTLIHEFLK” as the sequence, how does the “soluble fraction (log2)” value read?
The value was -0.0593.

Which “soluble fraction (log2)” value does the source give for “HMTSAIAEGTVIRLTQSTNIRESMSEDAPKVATAFSGEKVTVIMSYAEGWTKVTYGDKTGYIKTELL” here?
The value was -0.184.

For “HMATTPEETILEYINKNNRISKQEIADLMGITRDGVSYHIKKLRKNGLLEWIGSPSNGHWEIIE”, which “soluble fraction (log2)” value is on record?
The value was 0.274.

For “HMAAGADEATTVPNVSGDTLNQAIKSLKAEGLGYMLSGAGARVRDQMPEPGAEMTKGSVVMLYMDGDAEVD”, which “soluble fraction (log2)” value is on record?
Its value is -0.0304.

With “HMPKELAPYDILARYYLTVNNSKQSIALLEQYLDKAGSAPAALKAKLLLAGILYPSGNKERAEKLVEEVIK” as the sequence, how does the “soluble fraction (log2)” value read?
The value was -0.465.

Which “soluble fraction (log2)” value does the source give for “HMIKKLDIEPIIKSVVDDFNNIYKLKRGITISYLNDGKNKYFINGIENRIEQIIANLLDNSISFSEDNKDV” here?
The value was 0.0041.

With “HMQEPNYQPLMQNIKSQDLEEVTRLLSLNDVKFKIDHRTGLLLVESSRVYEAKMKLAATGITD” as the sequence, how does the “soluble fraction (log2)” value read?
The value was -0.224.

Which “soluble fraction (log2)” value does the source give for “HMKSYQKITPATEGNYLTTYREGDDIKTYEGVKAMYTPADFDASSVREITPEEHQSYQKAKEQALQEETEQ” here?
Its value is -0.225.
